The values below come from US20250388893A1 (HUAZHONG AGRICULTURAL UNIVERSITY, published 2025).

The target in the experiment is T1, GAL4 DNA binding domain (UniProt P04386 1-147).
T1 construct: Residues read through from the cloning site are not described; also called BD
Description: yeast two-hybrid, growth on SD/-Trp/-Leu/-Ade/-His; empty vector.

T1 sequence (P04386 1-147 limits assumed): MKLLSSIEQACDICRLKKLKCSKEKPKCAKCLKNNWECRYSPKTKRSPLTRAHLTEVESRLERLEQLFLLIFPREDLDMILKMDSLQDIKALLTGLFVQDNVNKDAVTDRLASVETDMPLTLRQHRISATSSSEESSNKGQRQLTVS

B1: GAL4 activation domain (other, UniProt P04386 768-881, looked up)
chain: ANFNQSGNIADSSLSFTFTNSSNGPNLITTQTNSQALSQPIASSNVHDNFMNNEITASKIDDGNNSKPLSPGWTDQTAYNAFGITTGMFNTTTMDDVYNYLFDDEDTPPNPKKE
notes: Residues read through from the cloning site are not described; also called AD
On to B1, for which the binding result is recorded as “no binding”.
